The text below walks through data of the domain aggregation screens of Martell et al. (2025).

Some results are limits rather than exact numbers.

This series in a line: soluble fraction after stress (log2 fold change); higher = more stays soluble; pooled small domains, quantitative proteomics. The settings on record: stress: pH 4. The procedure, abridged: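 Values are on a log2 scale, where higher means more of the domain stayed soluble after pH 4 stress. They are fold changes in the soluble amount of each domain from pooled custom libraries, measured by high-throughput quantitative proteomics. The fold change is taken to reflect aggregation propensity.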
“HMDEYTAVDSRLDLELAMKRLKPEEAEVLRLVFDYGLPQRAIAERLGVSQMSVSRMQRRAIGKLKRWLSDN”: the “soluble fraction (log2)” value is -0.678.

“HMDFKKKIIESWADIAETLRGLTVDSNISDWTTKQKNAYETLADKAELAGLSIADLNSILVELGYM”: the “soluble fraction (log2)” value was -0.378. With “HMDFNDPTMEKSLVELPAMSNSTLRDLSENNIKKLEELAEMSVGELMDIASKISESDASALIMEARKPWF”, the “soluble fraction (log2)” value is -0.741.

Take “HMDFRVGVWVELVQQRRSVRTQLTWVSPQHTLFLFTAKDGSTQSMTLRMRDKLLAEGNLRIVAPPSR”: the “soluble fraction (log2)” value came out at 0.22. For “HMDFSENEPVTVRVLSILKNNTIRIAVKGAVLQAQTALSQDIREGAFLLMRVHITDNTVVLTPY” the value was -0.193. The value for “HMDFSNVNFSQVSDSELDLLMRRASAQGYTQFDLLKIARAQGLTQAEIEKLDKRFKSAETVAYVAENA” was 0.0811; that for “HMDFTHFTLKQDGKFAGSSNLLHQAVIAAARLAAETGKPVTVMAHVRGGGTRKAVFNPDGTNDKIWN” was -0.0338. Take “HMDGAPVTVIKNGEVDVATTMRVGLSASELMFKLRAAGVDEVQIVHRAVLEQNGQLTIIKYGEE”: the “soluble fraction (log2)” value is -1.2. Regarding “HMDGASVQRITELTATLNRYRHEYYNLAKPSVSDAVYDRLFDELAALEQKTGIVLSNSPTQTV”, the “soluble fraction (log2)” value is -0.759. The value for “HMDGFVFVMPIKETRMFSVNDERPLVGIVKYSNGEFEKEQLIGFRPNSEYEFIIEGQRLYRVPVNSITIK” was -1.25; that for “HMDGIRLYPGLMIEHKNFGRGQVVSVNRERGTFTAFFGKNGTRTLTIQILKTDTVRPLASQKAGK” was -0.405; that for “HMDGKPSLIISNGQINYKEMVKLRYSLEDLLFQLRQNSIKSIEEVEYAFLESNGKLSIFPYNFL” was -1.65. The value for “HMDGLGLGAVILAQRKRQGWTQEDLAARIGVSKGAVSKWETGQSYPDLPLVPRLAALFHITVDELLDYR” was 0.263; that for “HMDGLIRLNKLLATLGVESRRHAEEMIIAGRITVDGVTATEKGQKVRRGAVIKVDGVEVGPPP” was 0.0501; that for “HMDGQPQLLIKNGQLLVSTALKNGMSANDLMFRLRTEGITDIRYVKRAVLEQNGQLTITQVGDD” was -0.0398. For “HMDGVTEYTVKSGDSFSAIINKHYNVNYDEKLMQAVAAYNNIEDMNKLQLGQIIKLPPKEQLNL” the value was -0.118. With “HMDGYVPAERIASEVGVSARTITREMHGLEMTLMPYGIALLRRTGAGFMLAGTAKALADLRKHMTEDADTQ”, the “soluble fraction (log2)” value came to 0.167. For “HMDHAHWEEHEVKLLLTLAIQEKEKFNWNQFGLTREGWRNIYPHFPQYSRKQINNKFDFLKQKYRAWKDS” the value was -1.09.

On to “HMDHAVINSEEVTIKDLSEKIGVSAAEIIKALFTEGIIKTINDKIEYEYAQYVAGMFGVELTLKL”, for which the “soluble fraction (log2)” value is 0.188.

Take “HMDIANEQEQIFITAMRNDDFNPILELKMKGYQPSKNVLKSLQPDVSSTTFIAAAKIFQMEGVL”: the “soluble fraction (log2)” value was -1.31. The value for “HMDIASNQIQGIKDSVGGDENYSKMVAWALESLPAEEVKAFNDLTETANAPAIKMAVQGLYSQYNNAM” was -0.9. As to “HMDIDGVSENGRLILAALDKEALDFDTLAAETGIQESRLRTELTLLEIRKLIMKLPGQRYRLI”, the “soluble fraction (log2)” value turned out to be 0.28. The value for “HMDIDNDIIENILVMGVTKAIAINLSNEFERHRIIANIEYAKEKSKNSEIKNISAFTVEAIRQDYANS” was -1.12; that for “HMDIEITIPPEAKELDVSKILISGNIITDEQEFLDYLKQNNVAAFKDGNYKLNKNMTTEEIVNQIK” was -1.2.

“HMDIESREAWVDASGMGVRLDRWLTQLAPEFSRNHLQSLIERGAVRVDGQPALVASRKLRIGQQVAVSLIP”: the “soluble fraction (log2)” value is -0.0568. Turning to “HMDIEVEVPNLVGMSLDEAKSIIQSMGLVVGLTIEDPSAKVSDNSVTKQKPTYQTGVKLRSGDMIDIWYAG”, the “soluble fraction (log2)” value is -0.676. Take “HMDIFSSFVAIKNANVRELPTAKSAQVATLSKGSEVTALGKVKGKNWYLVARDGKELGYVFGSLIAEAET”: the “soluble fraction (log2)” value was found to be 0.143. With “HMDIINLADNIARLRRRRQITQEELADYLGVTKAAVSKWENRQTMPDILLLPRLAGLFEVTIDELVGY”, the “soluble fraction (log2)” value is -1.72.

On to “HMDIKDRSGVTIDESNEAQQESIIRESWAEQKISGNVDNYIAYLKANGMLLETAKIELAALQEKDASLRE”, for which the “soluble fraction (log2)” value was -0.78. With “HMDILEVLIKKDLAMELLEQLTERQRTVVYLRYFYQLNQKEIADYLGISQQRVSEILSRAKAVLTAYTKK”, the “soluble fraction (log2)” value was -0.878. As to “HMDILPEGNYKVNYDVIDEVGNIVANKNDIVVTEKSIKPLNTILGIDLYEVIHSQTGKYFTINGDNLTN”, the “soluble fraction (log2)” value was -0.328. As to “HMDINLGIGPLVKKYRTIKGYSIRELARNINVTASMLSQIERDIVNPSINTLKAISVELGVPMYKFFM”, the “soluble fraction (log2)” value was -0.217. Regarding “HMDINLSENLVRLRHAKKLTQEQLADFLGVTKASVSKWETRQSLPDILLLPRLAAFYGVTVDELIGYEP”, the “soluble fraction (log2)” value is at least 0.43.

As to “HMDISKTLGKNPLLIIDNIEYRGKTLDEITAMTGVKRFENIDIYGSEEAMKTYGEKAKDGVIIAYTT”, the “soluble fraction (log2)” value was -0.62. In the case of “HMDITGIGIKKRIKAIIDSEDKKNPLSDTQIVEILKNEGLEISRRTVAKYRSDLQIPSSSKRKK”, the “soluble fraction (log2)” value amounted to 0.335. “HMDIVEIYVGEEDGERIDSYLAQELNNVSRSYVQGLIKNQLITVNGNHVKPKHIVKEGEHIIVNIPPPKV”: the “soluble fraction (log2)” value is -0.108. On to “HMDIVENSMPNVVGLELNRAKELMTQLGFTNVRYEPTESSRPENEVVYQSVDKDETLDVSSEIIIQYSSGV”, for which the “soluble fraction (log2)” value is -0.535. For the sequence “HMDKEKLQEKLLQIFEAEPQKKFQVQDLVKVLDMEGAGQFKFVVQALADLEHNKQIKLSEDDTFSLIVKE”, the “soluble fraction (log2)” value is 0.22. For “HMDKENVLQLQKDLLRLSVNALEKRYYQFSDILLLKYILPLVPKEISIDDQSRLRSLLSGIN” the value was -0.754. For “HMDKEPTHLHTFRLIKEGKSSEEIAEIRNITLGTVNTHLAKLIAVGELTIEQVISKHRLDYVMEAIKNSK” the value was -0.825. For “HMDKKIVGVNAGKVWQALNEVTEISIVELAEKLNLSVESTALAAGWLAREDQISIERKNGTIELQRKN” the value was -0.177; for “HMDKNNLLIIYRTNSEGTPYAFSVTPSAKSLDALHKDAKEMLPFLEKSMNNFFSIQIWERAEYLKY”, -0.379.

As to “HMDKPGMRLNQFIAHSGISSRREADNLIKAGLVQVNGKIIVEMGFRVMPTDIVKFNNETIAS”, the “soluble fraction (log2)” value came to 0.378. For “HMDKPIVFLEDTKAHKSSDLQSPVYMTVPKGTIAFVIAEKGDWSQVYAGRVLDRNLASQWVRRGFS” the value was 0.191; for “HMDKSLDFASIKSVEIATGRKFGWHALKKWSKSNSSEIKTIPDPNFGEVKTYHKDAWLAVYNINLSPILD”, -0.0629. Turning to “HMDKSPMIGTAEYEGVLYWRQTKDNGATWEWITDKNGDKMPVSGPAPAVGIDKDGYWTVNGESTGVLAKD”, the “soluble fraction (log2)” value was -0.0267. For “HMDKVSYALGLGIGRQLTDMGAKDLNIDDFAQAIKDVLAGGEVKLSDAEAQTIVRNFFDEQEKKQRA”, the “soluble fraction (log2)” value was -0.637. The value for “HMDLANLQNGQTLPLQRDVEVISIPFGKTISLSEDSVVSIMQAKGSSVSVAYEGRLYLIEGSNLDALGLEP” was -0.888; that for “HMDLANRSLDRGITILESLARNGASSLADLHRDSGIAKSTIRRLLGTLIQHRLVRRSVADGLYRVTIPLPA” was 0.025.

As to “HMDLDIQNYNLDEILELFKVSYDFDETELKKAHKMYLMTHPDKSNLNPNIFLFFVQAYDILRKLYEFR”, the “soluble fraction (log2)” value is -1.66.

Regarding “HMDLDIRDDIYRANIPNDYKLQQMQNNIDYDKVLTGYYNNRPEANVIANRTLQLANDVYNRD”, the “soluble fraction (log2)” value was -0.296. The value for “HMDLDLNIDNYNFDDLLNLFGLKMKFSEDDLKKAKRSVLMTHPDKSGLDKQYFMFFTKAYKMLSQIYYFR” was -0.779.

Take “HMDLDPNKPAIPIAYPRVLLNIMAEKGFSRTEVLAGSGLADSVFDKPDHRITPAQFLFILMNSFYLS”: the “soluble fraction (log2)” value was -0.631. With “HMDLFLVYQFIRRLATPFTEWKAHELGIIDDKGVQLKKRRDFTTREEKDAYGIFDIMITKLKRLIEKV”, the “soluble fraction (log2)” value was -1.04.

Consider “HMDLFSAVVHHIVGQQISTKAQATIWKRMRDEFGVVDAAAVLGAGVEKLQSFGMTFRKAEYITDFARKIE”, for which the “soluble fraction (log2)” value is -0.651. For “HMDLGLTDDQRLVYGLLSPTVPRSSGELLGMVDFGRSKLSRILKELIELGQVFTVGVGRGLKYKRG” the value was -0.256; for “HMDLGTHMRLIVPTGMRVDHIVYESNGKNISVDHDRSISVRWNGEVVSIDVSPLPSRPDFDVLIYMSPK”, -0.162; for “HMDLLAESLTRREAEVAALAARGLTNRAIAELFGLSVRTAETHLHRAMGKLGANRREDLLLHADRLDPG”, -0.618. For “HMDLLESLSAREREVVHLASRGLVNKLIARELGITERTVKAHLSSAFEKLHIKDRVHLALLVNGI” the value was -0.48; for “HMDLLKANNLSQINVDKLTDEEILKYSQQLKQSGLTESQAEQIAIARGMPATEIAKLKQRLISLTNMQ”, 0.213. The value for “HMDLLVWRVADEDAGERIDKLVVDSLDDVSRTAVQQWIKDGLVTVNGKTVKPNYKAAAGDEVAVSVPEPE” was -0.514.

For the sequence “HMDLMKKTLTKEMLLIDFMKQQFPDSSTNKLRKMLSSGRVKINNLITHKAKSQLKLGDIFELANKPHD”, the “soluble fraction (log2)” value turned out to be 0.124. The value for “HMDLPGIVTETDRQRADLAARIGAAKVEAVLAGGARSVEADEDFDADTRRELHQFLTRMARRAFLEER” was -0.722; that for “HMDLPSSETLKVKLNLAKAYVTIEDFGAARRALDEVLSVSSLVDPDLTIQAKSLLAEIDQRS” was -0.0976. In the case of “HMDLQAAWLQTVRHLLAHTEDVGDRFAEEARRIHYGEEPHRGIRGQATPEERLALREEGIETMSIPV”, the “soluble fraction (log2)” value was -0.204. The value for “HMDLQHQLTPRLKRLRLSGILETLEVRNQQAIAEKWSYVEFLTRLAEDEVERRDHKQLTLRLR” was -0.564; that for “HMDLSYPFTTVTTDNVNMRRSASSSSVVLERIDKGDSITVLGTSGNYYKVSYNDRTGYVLKQYVDVSAATT” was -0.0312; that for “HMDLTPEEQMDLYRLLDSLPTEERTYLILHYFEERSFPEMAEILSMPEAKLKSRFYRILHRLRAHL” was -1.11. With “HMDLTSDANLKEAKDQILNLLNDGKRHHVTEINKILLPPVQVQEALRFLIHEETVRVDASFLF”, the “soluble fraction (log2)” value is -0.083.
